Test results taken from patent publication US20220325265A1, “GLUCOCEREBROSIDASE MUTANTS” (Hoffmann-la Roche Inc., priority 2019, published 2022).
Substitutions are numbered along the chain they refer to. Numbers in names are those of the source. Where “and” joins values, the source holds several entries; their conditions need not be identical. Identical values can stand only once.

B1: M53T/P55T: recombinant human β-glucocerebrosidase variant R495H/M53T/P55T, S2 cells; Seq. Id. No. 7 (protein, listed as Homo sapiens)
chain: ARPCIPKSFGYSSVVCVCNATYCDSFDPPTFPALGTFSRYESTRSGRRMELSTGTIQANHTGTGLLLTLQPEQKFQKVKGFGGAMTDAAALNILALSPPAQNLLLKSYFSEEGIGYNIIRVPMASCDFSIRTYTYADTPDDFQLHNFSLPEEDTKLKIPLIHRALQLAQRPVSLLASPWTSPTWLKTNGAVNGKGSLKGQPGDIYHQTWARYFVKFLDAYAEHKLQFWAVTAENEPSAGLLSGYPFQCLGFTPEHQRDFIARDLGPTLANSTHHNVRLLMLDDQRLLLPHWAKVVLTDPEAAKYVHGIAVHWYLDFLAPAKATLGETHRLFPNTMLFASEACVGSKFWEQSVRLGSWDRGMQYSHSIITNLLYHVVGWTDWNLALNPEGGPNWVRNFVDSPIIVDITKDTFYKQPMFYHLGHFSKFIPEGSQRVGLVASQKNDLDAVALMHPDGSAVVVVLNRSSKDVPLTIKDPAVGFLETISPGYSIHTYLWHRQ
notes: recombinant human β-glucocerebrosidase variant R495H/M53T/P55T, S2 cells; Id; No. 7
B2: imiglucerase (protein, UniProt P04062 40-536, looked up, variant R495H)
Lysosomal acid …: B1 chain with T53M, T55P
modifications: imiglucerase; CHO-produced
notes: Commercially available Cerezyme (imiglucerase, Genzyme), hGCase R495H produced in CHO cells
B3: F31Y: recombinant human β-glucocerebrosidase variant R495H/F31Y, S2 cells; Seq. Id. No. 5 (protein, listed as Homo sapiens)
chain: B1 chain with F31Y, T53M, T55P
notes: recombinant human β-glucocerebrosidase variant R495H/F31Y, S2 cells; Id; No. 5
B4: L34Q: recombinant human β-glucocerebrosidase variant R495H/L34Q, S2 cells; Seq. Id. No. 6 (protein, listed as Homo sapiens)
chain: B1 chain with L34Q, T53M, T55P
notes: recombinant human β-glucocerebrosidase variant R495H/L34Q, S2 cells; Id; No. 6

Assays:
[1] = biological target: hGCase; assay: Inhibition of hGCase using conditurol-β-epoxide (CBE), IC50 determination; assay type: biochemical, human; conditions: irreversible inhibitor conditurol-β-epoxide on the named hGCase variant; 25 nM protein, 10 min pre-incubation, 20 μM res-β-glc
Protocol: CBE is an irreversible inhibitor of glucocerebrosidases which covalently binds to the active site of the enzyme (Liou et al., 2006).
A stock solution of 100 mM CBE in H2Oultrapure was prepared. For IC50 determination, CBE concentrations ranging from 0.04-2500 μM were tested. Again, the final enzyme concentration was 25 nM. After adding the inhibitor, the enzyme was pre-incubated for 10 min before initializing the activity measurement by adding the substrate (20 μM).
IC50 evaluations were done in the same manner as described for IFG (see section above). The IC50 calculations were done using GraphPad Prism7 following equation 9.
(§1) To determine whether the active binding site of an enzyme is compromised or altered, IC50 values were calculated for active site inhibitor and compared. In this work, the natural occurring GCase inhibitor isofagomine (IFG) and conditurol-β-epoxide (CBE) were used. IFG is known as a reversible inhibitor, interacting with the active site of the GCase enzyme, whereas CBE is an irreversible inhibitor of GCase (Powe et al., 2006). The IC50 of an enzyme is defined as the concentration of an inhibitor, where the response, in this case the enzyme activity, is reduced by half (Kalliokoski et al., 2013). Both assays were conducted as described in section 2.5.6. The inhibitor profiles of M53T/P55T using IFG and CBE as well as the IC50 profiles of all residual mutants combined are shown in FIG. 4.
(§2) The raw data was plotted by transforming the applied IFG/CBE concentration to a logarithmic scale (x-axis, FIG. 4) and by normalizing the activity signal with highest signal of each data set to 100% (defined with apparent inhibitor concentration of 10-12 μM, equal to no inhibitor). IC50 values were calculated using GraphPad Prism7 following equation 9.

[2] = Heat inactivation at 55° C., residual GCase activity of purified protein; assay type: physicochemical; conditions: for residual GCase activity after heat inactivation: 55° C. waterbath, 50 nM protein, initial activity = 100%
Protocol: (§3) For all further GCase characterization experiments including the activity assay, 20 μM substrate concentration, 30-40 min incubation time and protein concentrations ranging from 25-100 nM were set as final assay settings to ensure measurements in the linear range. The overall DMSO concentration within the assay was kept at 0.5% (v/v) or even below, since DMSO influences the fluorescent signal with higher concentrations (experimentally tested, data not shown; confirmed by (Urban et al., 2008). Therefore, GCase activity buffer+1% (v/v) DMSO was also used for dilutions (table 2.9). The plate reader SpectraMax i3 (Molecular Devices) including the analysis software SoftMax Pro 6.4 was used for all activity measurements within this work. The program settings were kept the same for all activity runs: kinetic run, measurement temperature: 37° C., PMT Gain: high; flashes per read: 6; read height: 0.73305 mm from plate.
Another approach to test the mutants for thermal stability is the irreversible heat inactivation at 55° C. (Futami et al., 2017; Zale & Klibanov, 1986). As initial screening to select for most promising candidates, this thermal stability approach was chosen (section 3.1.1). For this, supernatant samples of each construct were taken from the 30 ml S2 cell cultures, respectively (section 2.2). The protein concentration was not adjusted. The samples were incubated for 40 min in total at 55° C. (PCR Cycler Mastercycler gradient, Eppendorf) using PCR plates (FrameStar®96 well skirted PCR plate, 4titude Ltd.). Samples were taken after 5, 7, 10, 15, 20, 30 and 40 min for residual activity measurements. The activity assay was performed as described in section 2.3.5. The initial activity of each mutant was set to 100% before heating. Residual activities were calculated in regard to the initial activity. Data points were fitted using the one phase decay fit by GraphPad Prism7 following equation 3: […]
For the heat inactivation experiment of purified protein (see section 3.3.3), hGCase protein samples were prepared with a final concentration of 50 nM, diluted in hGCase activity buffer, pH 6.0 (table 2.9) and incubated for 5 and 10 minutes in the waterbath (Julabo 5A, Julabo) at 55° C.
The second approach was aimed to test residual GCase activity after thermal inactivation at a fixed temperature. With this additional approach, the focus was set on activity-based changes with increased incubation time (Futami et al., 2017; Zale & Klibanov, 1986). Here, samples were incubated for 5 and 10 minutes in the waterbath at 55° C. Residual GCase activities were measured with the initial activity set to 100% (before heating). FIG. 2 depicts calculated residual activities for tested mutants after incubation.

[3] = pH screening of hGCase variants (activity assay, pH 3.5-8); assay type: biochemical; conditions: for relative activity: highest activity = 100%; for pH optimum: pH range 3.5-8, 75 nM protein, 100% relative activity
Protocol: as §3
A pH optimum screening was done to observe a possible shift in the pH spectrum of the new variants due to structural modification of the enzymes. Therefore, three different buffers were used, covering a pH range of pH 3.5 to 8. For the screening, buffer substances were chosen after the use for purification buffers. Therefore, following buffers were prepared: Citric acid buffer (20 mM, pH 3.5-5), MES buffer (20 mM, pH 6-6.5) and HEPES buffer (20 mM, pH 7-8). The final protein concentration used for this assay was 75 nM. The activity assay was done as described in section 2.3.5 (table 2.11), merely the buffer was varied.
A possible pH optimum shift due to structural modifications should be examined. Since the GCase enzyme originally occurs within the lysosome, its natural pH optimum is reported to be between pH 4.7-6.0 (Lieberman et al., 2007; Liou et al., 2006; Tan et al., 2014). This could change when including slight modifications in the structure of the molecule. Thus, the mutants were tested within a pH range of 3.5 to 8 for enzymatic activity.

[4] = biological target: hGCase; assay: Inhibition of hGCase using isofagomine (IFG), IC50 determination; assay type: biochemical, human; conditions: reversible inhibitor isofagomine on the named hGCase variant; 25 nM protein, 10 min pre-incubation at RT, 20 μM res-β-glc
Protocol: IFG is a competitive, reversible inhibitor of hGCase, interacting with the active pocket of the enzyme (Powe et al., 2006).
To calculate the IC50, a concentration range of 0.002-100 μM IFG was tested. IFG was prepared with a stock concentration of 1 mM in DMSO. The final enzyme concentration was 25 nM. After adding the inhibitor to the enzyme, the solution was pre-incubated for 10 min at RT before adding the substrate (20 μM) for the activity measurement.
The evaluation and IC50 determination were done using GraphPad Prism7. hGCase activity with no inhibitor added was set to 100% relative enzyme activity. In case of evaluating the raw data via GraphPadPrism7, the applied inhibitor concentrations were first transformed to log 10×-values plottet on the x-axis. Further, the raw data measured with the activity assay in RFU was normalized to the highest activity value within one data set (equals 100%). 100% signal was defined as 10-12 μM IFG (=no inhibitor added). Data points were fitted and IC50 values were determined using log(inhibitor) vs. response-variable slope (four parameters) (GraphPadPrism7) following equation 9: […]
as §1, §2

[5] = pH 3.5, 20 mM citric acid buffer

| Molecule | IC50 [1] | residual GCase activity after heat inactivation ([2]; 5 min incubation) [%] | residual GCase activity after heat inactivation ([2]; 10 min incubation) [%] | relative activity [3, 5] [%] | shape of pH spectrum ([3]; pH 3.5-8) | IC50 [4] | residual activities after 5 and 10 min of incubation (in words) ([2]; 55° C., compared to R495HS2) | loss of activity [3, 5] [%] | pH optimum [3] [pH] |
| --- | --- | --- | --- | --- | --- | --- | --- | --- | --- |
| B1 | ~76 µM and 76 µM | 65 | 27 | 80 | more bell-shaped pH spectrum | ~0.04 µM and 0.04 µM |  |  |  |
| B2 | 60 ± 3 µM |  |  |  |  | 0.027 ± 0.006 µM | rapidly lose its initial activity but retained residual activity with further incubation | 40 |  |
| B3 | 60 ± 3 µM |  | ~27 | ~80 |  | 0.028 ± 0.003 µM |  |  | 6 |
| B4 | 106 µM |  | ~27 | ~80 |  | 0.022 ± 0.004 µM |  |  | 6 |
